Measured values reported in PMC2132723.

Legend:
[1] = target: pericentrin (Xenopus egg extract) (Xenopus laevis (endogenous in egg extracts)); experiment: quantitative Western blot; settings: scale: γ-tubulin molecules per pericentrin molecule
[2] = target: γ-tubulin (Xenopus egg extract) (Xenopus laevis (endogenous in egg extracts)) (UniProt P23330); experiment: co-IP

Row | percent of pericentrin co-depleted with γ-tubulin [2] [%] | Substance | stoichiometry N [1]
1 | – | γ-tubulin (Xenopus egg extract) (from UniProt P23330 1-451) (natural protein) | 30
2 | 85 to 95 | pericentrin (Xenopus egg extract) (natural protein) | –
